The values below come from patent publication US20210107943A1 (UNIVERSITY OF FLORIDA RESEARCH FOUNDATION, published 2021).

The chains are these.
T1: mCATCH(-) peptide, Ac-EQEPEPEPEQE-Am
T1 construct: Mutant with proline in place of the phenylalanine residues; also called mutant of CATCH(-)
T1 peptide: Ac-EQEPEPEPEQE-NH2

B1: CATCH(-) peptide, Ac-EQEFEFEFEQE-Am (peptide)
peptide: Ac-EQEFEFEFEQE-NH2
notes: also called CATCH (6-); negative peptide segment
B2: mCATCH(+) peptide, Ac-QQKPKPKPKQQ-Am (peptide)
peptide: Ac-QQKPKPKPKQQ-NH2
notes: Mutant with proline in place of the phenylalanine residues; also called mutant of CATCH(+)
B3: CATCH(+) peptide, Ac-QQKFKFKFKQQ-Am (peptide)
peptide: Ac-QQKFKFKFKQQ-NH2
notes: also called CATCH (4+); positive peptide segment

Series [1] concerns the molecule itself. Kind of series: ThT fluorescence microscopy and the data taken together (self-assembly). The protocol: For samples containing only CATCH peptides, ThT was mixed with samples at a 1:1 (v/v) ratio, 5 μL of each sample was placed onto a glass microscope slide, samples were covered with a cover slip, and samples were viewed using a GFP filter set. For samples containing CATCH peptides and CATCH(−)GFP, 0.75 μM CATCH(−)GFP was mixed with 200 μM CATCH(+) and 187.5 μM CATCH(−), unless otherwise specified. 5 μL of each sample was placed onto a glass microscope slide, samples were covered with a cover slip, and samples were viewed using a GFP filter set. For all samples, images were collected using an exposure time of 4 s.

Series [2] deals with B2. Briefly: ThT fluorimetry, equimolar mixture. The protocol: (§1) Thioflavin T (ThT) Assay. A ThT stock solution containing 0.8 mg/mL of thioflavin T (Acros) in 1× phosphate-buffered saline (PBS) (137 mM NaCl, 2.7 mM, KCl, 10 mM Na₂HPO₄ and 1.8 mM KH₂PO₄, pH 7.4) was filtered through a 0.22 μm syringe filter (Millex), and further diluted 1:10 with 1× PBS to create a working solution. Peptide samples were mixed with the ThT working solution at a 1:10 (v/v) ratio, added to a black 96-well plate (Corning), and analyzed with a Molecular Devices SpectraMax M3 spectrophotometer (excitation 450, emission 482 nm). All samples were run in triplicate, with the mean and standard deviation of these samples reported.
(§2) Nanofiber preparation. Stock solutions of CATCH(−) and CATCH(+) were prepared by dissolving lyophilized peptides in 1× PBS to a final concentration of 500 μM. Peptide concentration was confirmed using Phe absorbance (λ=260 nm). CATCH peptides were then mixed at a 1:1 (v/v) ratio and incubated overnight for formation of nanofibers, unless stated otherwise.

Series [3] has as its target T1, mCATCH(-) peptide, Ac-EQEPEPEPEQE-Am. Briefly: ThT fluorimetry, kinetic.
For series [4] the target is unchanged. Briefly: ThT fluorimetry, equimolar mixture. As to the method:
as §1, §2

Series [5] deals with the molecule itself. Kind of series: TEM and circular dichroism of the peptide alone (self-assembly). Background: Circular dichroism is widely used to follow secondary structure.

On to B1, for which the binding result in series [1] and in series [2] was “no binding” in each case.
Take B2: in series [3], the binding result is given as “no binding”.
As for B3, the binding result in series [4] and in series [5] was “no binding” each time.
